Peptide text beside a SMILES is read from it. * marks the point of attachment. Cbz = O=C(OCc1ccccc1)*; OtBu = CC(C)(C)O*
Key:
Assay type in all cases: cell-based, human
[1] = system: wild-type and variant SNAP-GIPR in INS-1 cells; assay: Proteasomal inhibition, total SNAP-GIPR in INS-1 cells; conditions: for total SNAP-GIPR level with PSI: 100 μM, 4 h, INS-1, scaled to experimental average without PSI; for total SNAP-GIPR level after proteasomal inhibition: INS-1, 100 μM, 4 hours
Protocol: INS-1 cells were reverse transfected with the GIPR variant or wild-type plasmids in 96-well, clear-bottom, black microplates precoated with poly-D-lysine. All variants were tested in parallel on each occasion to control for transfection efficiency differences between experiments. Twelve hours posttransfection, the cells were treated with either vehicle or Proteasome Inhibitor I (Merck) for 4 hours. Following this, the cells were labeled with the cell-permeable SNAP-tag probe BG-OG ([29]) for 10 min at 37°C to label total SNAP. Cells were then imaged as in the “Assessment of surface GIPR expression by SNAP-tag labeling in cell lines” section to establish total GIPR labeling (surface and intracellular). Images were analyzed as in the “Assessment of surface GIPR expression by SNAP-tag labeling in cell lines” section.

[2] = system: wild-type and variant SNAP-GIPR in INS-1 cells; assay: Bafilomycin A1 effect on surface SNAP-GIPR in INS-1 cells; conditions: inhibition of constitutive GIPR down-regulation; fig. S2A
Protocol: Twenty-four hours before the experiment, AD293 or INS-1 cells were reverse transfected with GIPR variant or wild-type plasmids using Lipofectamine 2000 in 96-well, clear-bottom, black microplates precoated with poly-D-lysine. All variants were tested in parallel on each occasion to control for transfection efficiency differences between experiments.

[3] = system: wild-type and variant SNAP-GIPR; assay: Surface SNAP-GIPR expression (SNAP-tag labelling) in AD293 cells; conditions: for AD293 Surface: Fig S3E, mean; for Surface SNAP-GIPR expression: sheet Fig 1C
Method in brief: (§1)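 Surface GIPR is quantified from wide-field images after labelling intact transfected cells with a membrane-impermeant SNAP probe at 500 nM for 10 min at room temperature. Specific signal, corrected for nontransfected cells, is normalized to the experiment-wide average or to wild-type.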

[4] = system: wild-type and variant SNAP-GIPR; assay: Surface SNAP-GIPR expression (SNAP-tag labelling) in INS-1 cells; conditions: Fig 4G; Mean
Method in brief: as §1

[5] = system: wild-type and variant SNAP-GIPR; assay: Single-concentration GIP cAMP response by HTRF in AD293 cells; conditions: Fig S3F, HTRF, mean;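 note: ratio to experiment-wide average response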
Protocol: (§2) All variants were tested in parallel on each occasion to control for transfection efficiency differences between experiments.

[6] = system: wild-type and variant SNAP-GIPR; assay: Single-concentration GIP cAMP response by HTRF in INS-1 cells; conditions: Fig S3E, mean
Protocol: as §2

[7] = system: wild-type and variant SNAP-GIPR; assay: cADDis cAMP imaging in AD293 cells, ensemble, expression-matched and per decile; conditions: Fig S3F, cADDis, mean
Method in brief: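 Per-cell cAMP from cADDis intensity over time, with cells excluded by IBMX/FSK response criteria. Expression matching used wild-type surface-SNAP deciles, top and bottom trimmed, mean of decile means. Ensemble values ignore deciles. Wide-field imaging at 37 °C in KRBH with 6 mM glucose, 0.1% BSA, 24 h post-transfection in AD293.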

[8] = system: wild-type and variant SNAP-GIPR; assay: Constitutive and agonist-mediated internalization, reversible SNAP-tag labelling, AD293 cells; design: key to Internalisation, Vehicle / Internalisation, +GIP / Internalisation, GIP-only: % internalization: residual fluorescence after Mesna vs pre-Mesna; Surface expression: unit not given here; conditions: Mean
Method in brief: (§3)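 % internalization = residual specific fluorescence after Mesna / pre-Mesna value. Imaging in TNE buffer pH 8.6; second image 10 min post-Mesna.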

[9] = system: wild-type and variant SNAP-GIPR; assay: Constitutive and agonist-mediated internalization, reversible SNAP-tag labelling, INS-1 cells; design: key to Internalisation, GIP-only / Internalisation, Vehicle / Internalisation, +GIP: % internalization: residual fluorescence after Mesna vs pre-Mesna; conditions: Mean
Method in brief: as §3

Molecule: CC[C@H](C)[C@H](NC(=O)OCc1ccccc1)C(=O)N[C@@H](CCC(=O)OC(C)(C)C)C(=O)N[C@@H](C)C(=O)N[C@H](C=O)CC(C)C [PSI] (Cbz-IE(OtBu)AL-aldehyde)
- total SNAP-GIPR level with PSI ([1]; E288G, replicate 1): 0.3892
- total SNAP-GIPR level with PSI ([1]; E288G, replicate 2): 3.417
- total SNAP-GIPR level with PSI ([1]; E288G, replicate 3): 2.001
- total SNAP-GIPR level with PSI ([1]; E288G, replicate 4): 0.9026
- total SNAP-GIPR level with PSI ([1]; E288G, replicate 5): 1.217
- total SNAP-GIPR level with PSI ([1]; E354Q, replicate 1): 0.9055
- total SNAP-GIPR level with PSI ([1]; E354Q, replicate 2): 0.737
- total SNAP-GIPR level with PSI ([1]; E354Q, replicate 3): 1.364
- total SNAP-GIPR level with PSI ([1]; E354Q, replicate 4): 0.8268
- total SNAP-GIPR level with PSI ([1]; E354Q, replicate 5): 0.8316
- total SNAP-GIPR level after proteasomal inhibition ([1]; E288G): significant increase in E288G levels
- total SNAP-GIPR level after proteasomal inhibition ([1]; R190Q and R101H): numerically similar trends
- total SNAP-GIPR level after proteasomal inhibition ([1]; wild-type and E354Q): unaffected by proteasomal inhibition
- total SNAP-GIPR level with PSI ([1]; R101H, replicate 1): 0.131
- total SNAP-GIPR level with PSI ([1]; R101H, replicate 2): 0.3704
- total SNAP-GIPR level with PSI ([1]; R101H, replicate 3): 0.7801
- total SNAP-GIPR level with PSI ([1]; R101H, replicate 4): 0.651
- total SNAP-GIPR level with PSI ([1]; R101H, replicate 5): 0.8591
- total SNAP-GIPR level with PSI ([1]; R190Q, replicate 1): 0.3291
- total SNAP-GIPR level with PSI ([1]; R190Q, replicate 2): 0.5524
- total SNAP-GIPR level with PSI ([1]; R190Q, replicate 3): 1.18
- total SNAP-GIPR level with PSI ([1]; R190Q, replicate 4): 0.5932
- total SNAP-GIPR level with PSI ([1]; R190Q, replicate 5): 0.77
- total SNAP-GIPR level with PSI ([1]; WT, replicate 1): 4.2848
- total SNAP-GIPR level with PSI ([1]; WT, replicate 2): 3.795
- total SNAP-GIPR level with PSI ([1]; WT, replicate 3): 3.454
- total SNAP-GIPR level with PSI ([1]; WT, replicate 4): 1.746
- total SNAP-GIPR level with PSI ([1]; WT, replicate 5): 2.287

Molecule: CO/C1=C\C(C)=C\[C@@H](C)[C@@H](O)[C@@H](C)C/C(C)=C/C=C/[C@H](OC)[C@@H]([C@@H](C)[C@@H](O)[C@H](C)[C@@]2(O)C[C@@H](O)[C@H](C)[C@@H](C(C)C)O2)OC1=O [bafilomycin A1]
- rescue of surface expression of GIPR variants [2]: did not lead to disproportionate “rescue”

B1: E252D (protein)
chain: RAETGSKGQTAGELYQRWERYRRECQETLAAAEPPSGLACNGSFDMYVCWDYAAPNATARASCPWYLPWHHHVAAGFVLRQCGSDGQWGLWRDHTQCENPEKNEAFLDQRLILERLQVMYTVGYSLSLATLLLALLILSLFRRLHCTRNYIHINLFTSFMLRAAAILSRDRLLPRPGPYLGDQALALWNQALAACRTAQIVTQYCVGANYTWLLVEGVYLHSLLVLVGGSDEGHFRYYLLLGWGAPALFVIPWVIVRYLYENTQCWERNEVKAIWWIIRTPILMTILINFLIFIRILGILLSKLRTRQMRCRDYRLRLARSTLTLVPLLGVHEVVFAPVTEEQARGALRFAKLGFEIFLSSFQGFLVSVLYCFINKEVQSEIRRGWHHCRLRRSLGEEQRQLPERAFRALPSGSGPGEVPTSRGLSSGTLPGPGNEASRELESYC
- AD293 Surface ([3]; column repeated, paired with cAMP 100 nM): 1.407
- AD293 Surface ([3]; paired with cAMP 100 pM): 1.407
- Surface SNAP-GIPR expression ([3]; replicate 1): 1.329
- Surface SNAP-GIPR expression ([3]; replicate 2): 1.136
- Surface SNAP-GIPR expression ([3]; replicate 3): 2.323
- Surface SNAP-GIPR expression ([3]; replicate 4): 1.309
- Surface SNAP-GIPR expression ([3]; replicate 5): 1.389
- Surface SNAP-GIPR expression ([3]; replicate 6): 1.509
- Surface SNAP-GIPR expression ([3]; replicate 7): 1.009
- Surface SNAP-GIPR expression ([3]; replicate 8): 1.58
- Surface SNAP-GIPR expression ([3]; replicate 9): 1.305
- Surface SNAP-GIPR expression ([3]; replicate 10): 1.452
- Surface SNAP-GIPR expression ([3]; replicate 11): 1.297
- Surface SNAP-GIPR expression ([3]; replicate 12): 1.294
- Surface SNAP-GIPR expression ([3]; replicate 13): 1.499
- Surface SNAP-GIPR expression ([3]; replicate 14): 1.714
- Surface SNAP-GIPR expression ([3]; replicate 15): 1.276
- Surface SNAP-GIPR expression ([3]; replicate 16): 1.31
- Surface SNAP-GIPR expression ([3]; replicate 17): 1.201
- Surface SNAP-GIPR expression ([3]; replicate 18): 1.327
- Surface SNAP-GIPR expression ([3]; replicate 19): 1.07
- Surface SNAP-GIPR expression ([3]; replicate 20): 1.361
- Surface SNAP-GIPR expression ([3]; replicate 21): 1.327
- Surface SNAP-GIPR expression ([3]; replicate 22): 1.295
- Surface SNAP-GIPR expression ([3]; replicate 23): 1.346
- Surface SNAP-GIPR expression ([3]; replicate 24): 1.279
- Surface SNAP-GIPR expression ([3]; replicate 25): 1.414
- Surface SNAP-GIPR expression ([3]; replicate 26): 1.49
- Surface SNAP-GIPR expression ([3]; replicate 27): 1.461
- Surface SNAP-GIPR expression ([3]; replicate 28): 1.564
- Surface SNAP-GIPR expression ([3]; replicate 29): 1.396
- Surface SNAP-GIPR expression ([3]; replicate 30): 1.388
- Surface SNAP-GIPR expression ([3]; replicate 31): 2.074
- Surface SNAP-GIPR expression ([3]; replicate 32): 1.301
- Surface SNAP-GIPR expression ([3]; replicate 33): 1.332
- Surface SNAP-GIPR expression ([3]; replicate 34): 1.623
- Surface SNAP-GIPR expression ([3]; replicate 35): 1.576
- Surface SNAP-GIPR expression ([3]; replicate 36): 1.688
- Surface SNAP-GIPR expression ([3]; replicate 37): 1.181
- Surface SNAP-GIPR expression ([3]; replicate 38): 1.286
- Surface SNAP-GIPR expression ([3]; replicate 39): 1.291
- Surface SNAP-GIPR expression ([3]; replicate 40): 1.349
- Surface SNAP-GIPR expression ([3]; replicate 41): 1.333
- Surface expression [4]: 1.379
- AD293 100 pM HTRF ([5]; AD293, 100 pM): 2.258
- AD293 100 nM HTRF ([5]; AD293, 100 nM): 1.787
- INS-1 cAMP (100 nM) [6]: 1.435
- AD293 100 pM cADDis ([7]; AD293, 100 pM): 35.9603
- AD293 100 nM cADDis ([7]; AD293, 100 nM): 38.59
- +GIP internalisation (100 nM) ([8]; Fig 4E, GIP 100 nM): 0.7833
- GIP-specific internalisation (100 nM) ([8]; Fig 4E, GIP 100 nM): 0.2173
- Constitutive internalisation (100 nM) ([8]; Fig 4E): 0.566
- Surface expression ([8]; Fig 4E): 1.422
- Internalisation, +GIP ([8]; Fig S4C, AD293): 55.2271
- Internalisation, GIP-only ([8]; Fig S4C, AD293): 15.2317
- Internalisation, Vehicle ([8]; Fig S4C, AD293): 39.9954
- +GIP internalisation (100 nM) ([9]; Fig 4G, GIP 100 nM): 0.6632
- GIP-specific internalisation (100 nM) ([9]; Fig 4G, GIP 100 nM): 0.1797
- Constitutive internalisation (100 nM) ([9]; Fig 4G): 0.4835
- Internalisation, +GIP ([9]; Fig S4C, INS-1): 49.4067
- Internalisation, GIP-only ([9]; Fig S4C, INS-1): 13.4967
- Internalisation, Vehicle ([9]; Fig S4C, INS-1): 35.91
